Results: patent US20250026849A1 (ARCELLX, published 2025)
Substitutions are numbered along the chain they refer to.

B1: D-domain SEQ ID NO: 255 (designed binder)
chain: MGSWHAFKYKLAMIKWYLEALGGSEAELAHFEEWIAEFEALLQEYKGKGNPEVEALRKEAAAIRDELQAYRHN
B2: D-domain SEQ ID NO: 282 (designed binder)
chain: B1 chain with H5Q, A6N, K10H, H30N, W34F, E37Q, A40I, L41N, E44H
B3: D-domain SEQ ID NO: 281 (designed binder)
chain: B1 chain with H5I, A6E, M13I, W16F, E33H, E37D, A40F, L41V, E44Q
B4: D-domain SEQ ID NO: 271 (designed binder)
chain: B1 chain with H5N, A6E, K10H, M13V, W16F, E33T, A40Y, L41E, E44K
B5: D-domain SEQ ID NO: 269 (designed binder)
chain: B1 chain with H5T, A6Q, K10H, M13V, H30G, E33Q, A40K, L41T
B6: D-domain SEQ ID NO: 280 (designed binder)
chain: B1 chain with H5S, A6E, M13L, E33G, E37N, A40T, L41T, E44K
B7: D-domain SEQ ID NO: 285 (designed binder)
chain: MGSWSHFKYHLAIIKFYLEALGGSEAELAGFEIWIAKFEDELQMYKGKGNPEVEALRKEAAAIRDELQAYRHN
B8: D-domain SEQ ID NO: 278 (designed binder)
chain: MGSWQGFKYHLALIKFYLEALGGSEAELAHFEHWLAEFEHDLQTYKGKGNPEVEALRKEAAAIRDELQAYRHN
B9: D-domain SEQ ID NO: 277 (designed binder)
chain: B8 chain with Q5Y, G6H, F16W, L35I, H40W, D41T, T44Q
B10: D-domain SEQ ID NO: 273 (designed binder)
chain: B7 chain with S5V, H6D, I13V, Y17W, G30N, I33T, K37N, D40Q
B11: D-domain SEQ ID NO: 270 (designed binder)
chain: MGSWNQFKYRLAVIKFYLEALGGSEAELAHFETWIAAFEEQLQFYKGKGNPEVEALRKEAAAIRDELQAYRHN
B12: D-domain SEQ ID NO: 272 (designed binder)
chain: B11 chain with N5V, R10H, A37E, E40V, Q41A, F44G
B13: D-domain SEQ ID NO: 276 (designed binder)
chain: B7 chain with I13L, F16W, G30K, I33F, K37E, D40H, E41N
B14: D-domain SEQ ID NO: 268 (designed binder)
chain: B11 chain with Q6T, R10H, Y17M, H30F, T33Q, A37E, E40V, Q41T, F44S
B15: D-domain SEQ ID NO: 264 (designed binder)
chain: MGSWAHFKYRLAIIKFWLEALGGSEAELANFEEYIAEFESTLQVYKGKGNPEVEALRKEAAAIRDELQAYRHN
B16: D-domain SEQ ID NO: 294 (designed binder)
chain: MGSWYKFKHKLAVIKYMLEALGGSEAELAWFEEWIAEFEVTLQDYKGKGNPEVEALRKEAAAIRDELQAYRHN
B17: D-domain SEQ ID NO: 244 (designed binder)
chain: MGSWYGFKYRLAVIKWYLEALGGSEAELASFEKYIAHFEHDLQAYKGKGNPEVEALRKEAAAIRDELQAYRHN
B18: D-domain SEQ ID NO: 250 (designed binder)
chain: B15 chain with A5H, H6G, F16W, N30F, Y34W, E37S, S40R, T41D, V44I
B19: D-domain SEQ ID NO: 274 (designed binder)
chain: B17 chain with Y5V, G6D, R10H, S30D, K33N, Y34W, H40S, D41I, A44Q
B20: D-domain SEQ ID NO: 254 (designed binder)
chain: B1 chain with H5G, A6Y, K10R, H30S, E33S, A40G, L41S, E44A
B21: D-domain SEQ ID NO: 262 (designed binder)
chain: B11 chain with N5A, Q6G, F16Y, T33Q, A37H, E40G, Q41M, F44D
B22: D-domain SEQ ID NO: 258 (designed binder)
chain: B15 chain with A5G, H6A, W17Y, N30R, Y34F, E37N, S40H, T41D, V44N
B23: D-domain SEQ ID NO: 251 (designed binder)
chain: B17 chain with Y5H, S30M, K33G, Y34W, H37Q, H40I, D41T, A44Q
B24: D-domain SEQ ID NO: 252 (designed binder)
chain: B17 chain with Y5Q, Y17M, S30F, K33N, Y34W, H37E, H40T, D41K, A44Q
B25: D-domain SEQ ID NO: 259 (designed binder)
chain: B8 chain with Q5Y, G6N, H10R, L13I, H30Q, H33I, L35I, T44G
B26: D-domain SEQ ID NO: 256 (designed binder)
chain: B17 chain with Y5Q, G6H, V13I, S30F, K33S, Y34F, H37K, A44K
B27: D-domain SEQ ID NO: 263 (designed binder)
chain: B15 chain with A5T, H6A, W17Y, N30H, E33S, E37H, S40D, T41M, V44H
B28: D-domain SEQ ID NO: 242 (designed binder)
chain: B17 chain with Y5S, G6D, W16F, K33S, Y34F, H40D, A44K
B29: D-domain SEQ ID NO: 247 (designed binder)
chain: B17 chain with Y5S, G6T, R10H, K33D, H37Q, H40T, A44E
B30: D-domain SEQ ID NO: 246 (designed binder)
chain: B17 chain with V13L, K33T, H37D, H40D, D41L
B31: D-domain SEQ ID NO: 275 (designed binder)
chain: MGSWVEFKYHLAVIKFTLEALGGSEAELADFEEEIARFEMILQQYKGKGNPEVEALRKEAAAIRDELQAYRHN
B32: D-domain SEQ ID NO: 253 (designed binder)
chain: B1 chain with H5S, A6G, K10R, M13V, H30T, A40T, L41E, E44F
B33: D-domain SEQ ID NO: 243 (designed binder)
chain: B17 chain with Y5S, W16F, K33L, Y34F, H37K, H40I, A44N
B34: D-domain SEQ ID NO: 257 (designed binder)
chain: B17 chain with Y5N, G6D, V13I, W16Y, S30H, K33S, H37S, A44N
B35: D-domain SEQ ID NO: 245 (designed binder)
chain: B17 chain with H37Q
B36: D-domain SEQ ID NO: 260 (designed binder)
chain: MGSWEQFKYRLAIIKYMLEALGGSEAELAWFESWIANFESDLQHYKGKGNPEVEALRKEAAAIRDELQAYRHN
B37: D-domain SEQ ID NO: 261 (designed binder)
chain: B11 chain with N5Q, V13I, F16Y, H30G, W34Y, A37K, Q41V, F44S
B38: D-domain SEQ ID NO: 290 (designed binder)
chain: B36 chain with E5T, Q6G, Y16F, W30F, S33Q, N37D, S40N, D41E, H44Y
B39: D-domain SEQ ID NO: 287 (designed binder)
chain: B16 chain with Y5V, K6N, H9Y, V13I, W30F, E33D, V40R, D44Q
B40: D-domain SEQ ID NO: 292 (designed binder)
chain: B36 chain with E5F, Q6A, Y9H, I13V, W30F, S33H, N37Q, S40H, H44Q
B41: D-domain SEQ ID NO: 291 (designed binder)
chain: B36 chain with E5H, Q6N, Y16F, S33N, N37D, S40D, D41S, H44D
B42: D-domain SEQ ID NO: 288 (designed binder)
chain: B36 chain with E5S, Q6N, I13V, W30F, S33D, N37D, S40L, D41H, H44V
B43: D-domain SEQ ID NO: 293 (designed binder)
chain: B16 chain with K6E, K10R, W30F, E33N, E37Q, V40H, T41E, D44T
B44: D-domain SEQ ID NO: 289 (designed binder)
chain: MGSWTNFKYKLAVIKFMLEALGGSEAELAFFEDWIAGFEIDLQNYKGKGNPEVEALRKEAAAIRDELQAYRHN
B45: D-domain SEQ ID NO: 283 (designed binder)
chain: MGSWYNFKYHLAIIKWWLEALGGSEAELADFEHYIADFERNLQEYKGKGNPEVEALRKEAAAIRDELQAYRHN
B46: D-domain SEQ ID NO: 286 (designed binder)
chain: B7 chain with S5V, H6G, Y9A, F16W, W34F, K37D, D40A, E41L
B47: D-domain SEQ ID NO: 265 (designed binder)
chain: MGSWANFKYRLALIKWHLEALGGSEAELASFEIWIADFEESLQWYKGKGNPEVEALRKEAAAIRDELQAYRHN
B48: D-domain SEQ ID NO: 267 (designed binder)
chain: B47 chain with A5T, N6H, H17W, S30G, I33V, W34H, E40A, S41Q, W44M
B49: D-domain SEQ ID NO: 266 (designed binder)
chain: B47 chain with N6T, S30D, I33E, W34Y, D37G, S41G, W44K
B50: D-domain SEQ ID NO: 241 (designed binder)
chain: MGSWNSFKHRLALIKWYLEALGGSEAELATFEWYIASFESELQQYKGKGNPEVEALRKEAAAIRDELQAYRHN
B51: D-domain SEQ ID NO: 279 (designed binder)
chain: B50 chain with N5L, R10H, T30S, W33A, Y34W, S37L, S40H, E41Q
B52: D-domain SEQ ID NO: 248 (designed binder)
chain: B50 chain with N5H, S6E, H9Y, W33H, Y34H, S37Q, S40W, E41D, Q44K
B53: D-domain SEQ ID NO: 284 (designed binder)
chain: B7 chain with S5Y, H6Q, F16W, I33N, W34Y, K37T, D40Q, M44Q
B54: D-domain SEQ ID NO: 249 (designed binder)
chain: B50 chain with S6M, H9Y, L13H, W33A, S37D, S40V, E41D, Q44K

What follows are binders tested against T1, BCMA (Homo sapiens (Human), UniProt Q02223 1-54, limits assumed) (assay: ELISA, format not described).
T1 sequence: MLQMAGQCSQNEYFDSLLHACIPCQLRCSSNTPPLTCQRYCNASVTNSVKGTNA
Set-up: unit not given here
With B1 the ELISA_avg was 11.6.
B2 was tested, and the ELISA_avg was 9.55.
B3 was tested, and the ELISA_avg was 14.9.
B4 showed an ELISA_avg of 13.7.
With B5 the ELISA_avg was 21.1.
With B6 the ELISA_avg was 11.3.
With B7 the ELISA_avg was 9.34.
In the case of B8, the ELISA_avg is reported as 21.2.
B9 was tested, and the ELISA_avg was 8.85.
For B10, the ELISA_avg was 13.2.
B11 gave an ELISA_avg of 12.8.
Work on B12 yielded an ELISA_avg of 12.7.
B13 gave an ELISA_avg of 7.93.
B14 showed an ELISA_avg of 10.6.
Work on B15 yielded an ELISA_avg of 13.1.
B16 was tested, and the ELISA_avg was 4.54.
With B17 the ELISA_avg was 9.05.
B18 was tested, and the ELISA_avg was 6.03.
In the case of B19, the ELISA_avg is reported as 10.4.
In the case of B20, the ELISA_avg is reported as 13.
B21 showed an ELISA_avg of 12.7.
With B22 the ELISA_avg was 12.9.
B23 gave an ELISA_avg of 5.99.
B24 showed an ELISA_avg of 7.75.
Binder B25 has an ELISA_avg of 19.9.
Binder B26 has an ELISA_avg of 8.91.
For B27, the ELISA_avg was 7.43.
Binder B28 has an ELISA_avg of 13.
B29 was tested, and the ELISA_avg was 11.7.
Binder B30 has an ELISA_avg of 13.
Binder B31 has an ELISA_avg of 6.92.
With B32 the ELISA_avg was 14.
Work on B33 yielded an ELISA_avg of 13.1.
In the case of B34, the ELISA_avg is reported as 15.1.
For B35, the ELISA_avg was 7.63.
In the case of B36, the ELISA_avg is reported as 11.
B37 was tested, and the ELISA_avg was 15.1.
Binder B38 has an ELISA_avg of 13.9.
B39 gave an ELISA_avg of 7.39.
Binder B40 has an ELISA_avg of 12.
With B41 the ELISA_avg was 13.6.
For B42, the ELISA_avg was 9.34.
B43 showed an ELISA_avg of 3.71.
With B44 the ELISA_avg was 11.4.
For B45, the ELISA_avg was 8.63.
Work on B46 yielded an ELISA_avg of 9.71.
Binder B47 has an ELISA_avg of 14.3.
Work on B48 yielded an ELISA_avg of 7.37.
B49 gave an ELISA_avg of 15.1.
In the case of B50, the ELISA_avg is reported as 10.3.
Work on B51 yielded an ELISA_avg of 6.3.
Binder B52 has an ELISA_avg of 16.2.
B53 gave an ELISA_avg of 18.4.
B54 showed an ELISA_avg of 16.3.
